Results reported in patent US20240299584A1, “NON-CODING RNA PROTECTING AGAINST HEART FAILURE” (MEDIZINISCHE HOCHSCHULE HANNOVER, priority 2019, published 2024).

How the values were obtained:
HL-1 cells [1] = assay: WST-1 assay (cell viability); format: cell-based, mouse; settings: HL-1 cells treated with doxorubicin 0.25 μM 48 h
Experimental: HL-1 cells were cultured in Claycomb medium together with 10% FBS, norepinephrine, L-Glutamine and pencillin/streptomycin as manufacturer's protocol. 3T3 and RAW264.7 cells were cultured in DMEM with 10% FBS and pencillin/streptomycin. Neonatal rat cardiomyocytes (NRCM) were isolated from one to three-day old rat babies by using the Neonatal Heart Dissociation Kit (Miltenyi). Human iPSC derived cardiomyocytes (hiPSC-cm) were differentiated at the lab of IMTTS. All the cells were treated with 0.25 μM Doxorubicin (Sigma-Aldrich) for 48 hours. circ-Insr siRNA (Eurofins), in vitro circular RNA and overexpression plasmid were transfected with Lipofectamine 2000 (Life Technologies) in OptiMEM medium. NRCM and hipsc-CM were transduced by AAV6 (MOI: 1*10^4) for 72 hours.
WST-1 assay was performed using Cell Proliferation Reagent WST-1 (Roche) as per the manufacturer instruction. Briefly, HL-1 cells were seeded in 96 well plate and next day treated with 0.25 μM Doxorubicin in normal medium with 10% FBS for forty-eight hours. Next, 10 μL WST1 reagent was added and incubated for 1 hour followed by the absorbance measurement (450 nm) at HT Synergy (Biotek) plate reader.

HL-1 cells [2] = assay: Analysis of mitochondrial fission (MitoTracker); format: cell-based, mouse; settings: doxorubicin 0.25 μM 48 h, circ-Insr by overexpression plasmid vs negative control
Experimental: Based on the results of the foregoing examples, it was reasoned that circ-Insr could interact with SSBP1. To further confirm the interaction between circ-Insr and SSBP1, siRNA mediated circ-Insr knock-down was applied in HL-1 cells. Next, RNA pulldown was performed with circ-Insr and scramble biotinylated probes. RT-qPCR confirmed that decrease of circ-Insr appeared both in input and circ-Insr pulldown group (FIG. 23A). […] Therefore, we assumed that circ-Insr is a cofactor of SSBP1 resulting in the regulation of mitochondrial function in cardiomyocytes by stabilizing mtDNA. […] Furthermore, mito-damage assay was applied to measure the changes in mitochondrial membrane potential (MMP). […]
Mitochondrial fission was analysed by staining mitochondria via MitoTracker® Deep Red FM (Cell Signalling) (Aung L H H, Li R B, Prabhakar B S, Maker A V, Li P F. Mitochondrial protein 18 (MTP18) plays a pro-apoptotic role in chemotherapy-induced gastric cancer cell apoptosis. Oncotarget. 2017; 8:56582-97). […] Mitochondria were imaged using Nikon Eclipse Ti microscope with 60× oils Objective (CFI Plan Apo Lambda 60× Oil) and images were analyzed with NIS Elements. To quantitatively analyse cells with mitochondria fission, those cells with disintegrated mitochondria were considered as fission. The total cell numbers were counted via Hochest 33342. […] More than 150 cells in 10-15 random fields were counted.

B1: circINSR: circRNA formed through backsplicing of the second exon of the insulin receptor gene transcript; overexpressed from plasmid or AAV (nucleic acid, listed as Homo sapiens)
chain: UGUGUCCCGGCAUGGAUAUCCGGAACAACCUCACUAGGUUGCAUGAGCUGGAGAAUUGCUCUGUCAUCGAAGGACACUUGCAGAUACUCUUGAUGUUCAAAACGAGGCCCGAAGAUUUCCGAGACCUCAGUUUCCCCAAACUCAUCAUGAUCACUGAUUACUUGCUGCUCUUCCGGGUCUAUGGGCUCGAGAGCCUGAAGGACCUGUUCCCCAACCUCACGGUCAUCCGGGGAUCACGACUGUUCUUUAACUACGCGCUGGUCAUCUUCGAGAUGGUUCACCUCAAGGAACUCGGCCUCUACAACCUGAUGAACAUCACCCGGGGUUCUGUCCGCAUCGAGAAGAACAAUGAGCUCUGUUACUUGGCCACUAUCGACUGGUCCCGUAUCCUGGAUUCCGUGGAGGAUAAUUACAUCGUGUUGAACAAAGAUGACAACGAGGAGUGUGGAGACAUCUGUCCGGGUACCGCGAAGGGCAAGACCAACUGCCCCGCCACCGUCAUCAACGGGCAGUUUGUCGAACGAUGUUGGACUCAUAGUCACUGCCAGAAAG
modifications: circular RNA; RNA sequence
notes: circRNA formed through backsplicing of the second exon of the insulin receptor gene transcript; overexpressed from plasmid or AAV
HL-1 cells [1]
  cell viability (WST-1): enhanced cell viability
HL-1 cells [1]; listed as circ-Insr
  cell viability (WST-1): enhance the cell survival
HL-1 cells [2]
  percentage of cells undergoing mitochondrial fission: significantly reduce
